The target of the test is Human C3 (human, UniProt P01024 23-1663). Kind of test: cell-based or functional assay.

Starred links: 1 amine or outer side, 2 acyl side, 3 side chain; linkers in the order of their positions; H or OH if unused. Positions of bridges follow the written chain, without caps; N, C: chain ends. Non-standard residues stand in square brackets, D forms with d. Groups on a side chain read outwards from the residue. *: point of attachment. Trp(1-Me) = Cn1cc(C[C@H](N)C(=O)O)c2ccccc21; C18 diacid = O=C(O)CCCCCCCCCCCCCCCCC(=O)*; γGlu = O=C(O)[C@H](CCC(=O)[*:2])N[*:1]; hCys = N[C@@H](CCS)C(=O)O; AEEA = NCCOCCOCC(=O)O; Sar = CNCC(=O)O

Sequence of Human C3 (P01024 23-1663 limits assumed): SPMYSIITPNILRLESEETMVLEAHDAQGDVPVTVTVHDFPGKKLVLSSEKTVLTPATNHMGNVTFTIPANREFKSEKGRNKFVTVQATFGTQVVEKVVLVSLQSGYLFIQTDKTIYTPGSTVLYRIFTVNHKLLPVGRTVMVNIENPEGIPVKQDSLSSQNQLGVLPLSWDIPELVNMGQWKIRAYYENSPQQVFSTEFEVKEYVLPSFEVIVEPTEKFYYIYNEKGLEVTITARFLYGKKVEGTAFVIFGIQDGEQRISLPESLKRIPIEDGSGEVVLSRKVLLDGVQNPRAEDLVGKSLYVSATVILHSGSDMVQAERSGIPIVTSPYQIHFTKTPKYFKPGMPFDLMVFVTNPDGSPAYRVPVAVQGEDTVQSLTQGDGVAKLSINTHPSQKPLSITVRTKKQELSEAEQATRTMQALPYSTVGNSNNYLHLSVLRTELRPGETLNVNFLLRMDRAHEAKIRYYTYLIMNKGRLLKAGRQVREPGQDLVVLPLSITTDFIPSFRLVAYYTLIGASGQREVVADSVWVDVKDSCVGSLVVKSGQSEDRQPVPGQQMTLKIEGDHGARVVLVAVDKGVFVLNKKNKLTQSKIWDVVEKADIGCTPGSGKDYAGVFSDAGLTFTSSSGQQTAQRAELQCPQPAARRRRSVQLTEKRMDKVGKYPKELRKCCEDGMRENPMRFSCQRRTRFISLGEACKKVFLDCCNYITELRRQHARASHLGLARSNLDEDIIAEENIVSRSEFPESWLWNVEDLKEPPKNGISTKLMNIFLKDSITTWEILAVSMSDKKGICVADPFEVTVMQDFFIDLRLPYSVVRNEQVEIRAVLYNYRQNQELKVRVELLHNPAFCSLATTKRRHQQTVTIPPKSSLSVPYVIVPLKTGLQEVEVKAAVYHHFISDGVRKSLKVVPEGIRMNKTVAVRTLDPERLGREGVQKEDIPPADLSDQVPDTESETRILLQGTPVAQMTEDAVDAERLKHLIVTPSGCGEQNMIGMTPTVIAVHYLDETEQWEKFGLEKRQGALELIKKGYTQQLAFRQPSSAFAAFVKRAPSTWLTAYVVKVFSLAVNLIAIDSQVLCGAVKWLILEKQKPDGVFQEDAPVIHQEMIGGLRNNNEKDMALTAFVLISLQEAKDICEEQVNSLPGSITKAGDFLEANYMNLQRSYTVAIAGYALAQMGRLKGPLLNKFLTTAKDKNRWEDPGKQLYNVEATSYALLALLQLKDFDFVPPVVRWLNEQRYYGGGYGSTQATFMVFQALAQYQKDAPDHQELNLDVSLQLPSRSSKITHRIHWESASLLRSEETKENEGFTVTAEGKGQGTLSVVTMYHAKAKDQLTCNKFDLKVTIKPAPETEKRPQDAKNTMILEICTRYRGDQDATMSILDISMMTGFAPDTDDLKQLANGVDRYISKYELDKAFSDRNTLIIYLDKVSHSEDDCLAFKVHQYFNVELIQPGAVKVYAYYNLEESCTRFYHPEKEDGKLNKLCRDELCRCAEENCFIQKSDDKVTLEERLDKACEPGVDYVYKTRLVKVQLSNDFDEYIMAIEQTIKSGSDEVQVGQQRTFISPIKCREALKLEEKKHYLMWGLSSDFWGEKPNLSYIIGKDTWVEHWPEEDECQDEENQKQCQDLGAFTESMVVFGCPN

B1: Compound 27 (peptide)
peptide: Ac-ICIWQDWGEHRCEGE-NH2
modifications: disulfide 2-12
SMILES: CC[C@H](C)[C@H](NC(C)=O)C(=O)N[C@H]1CSSC[C@@H](C(=O)N[C@@H](CCC(=O)O)C(=O)NCC(=O)N[C@@H](CCC(=O)O)C(N)=O)NC(=O)[C@H](CCCNC(=N)N)NC(=O)[C@H](Cc2c[nH]cn2)NC(=O)[C@H](CCC(=O)O)NC(=O)CNC(=O)[C@H](Cc2c[nH]c3ccccc23)NC(=O)[C@H](CC(=O)O)NC(=O)[C@H](CCC(N)=O)NC(=O)[C@H](Cc2c[nH]c3ccccc23)NC(=O)[C@H]([C@@H](C)CC)NC1=O
For the molecule B1, the “IC50[nM], inhibition of hemolysis” value is less than 100 nM.

B2: Compound 144 (peptide)
peptide: Ac-SEFCI[Trp(1-Me)]QDW[Sar]EHRC[Sar]E[AEEA][AEEA]K([γGlu-Gly-γGlu-C18 diacid])-NH2
modifications: disulfide 4-14
SMILES: CC[C@H](C)[C@@H]1NC(=O)[C@@H](NC(=O)[C@H](Cc2ccccc2)NC(=O)[C@H](CCC(=O)O)NC(=O)[C@H](CO)NC(C)=O)CSSC[C@@H](C(=O)N(C)CC(=O)N[C@@H](CCC(=O)O)C(=O)NCCOCCOCC(=O)NCCOCCOCC(=O)N[C@@H](CCCCNC(=O)CC[C@H](NC(=O)CNC(=O)CC[C@H](NC(=O)CCCCCCCCCCCCCCCCC(=O)O)C(=O)O)C(=O)O)C(N)=O)NC(=O)[C@H](CCCNC(=N)N)NC(=O)[C@H](Cc2c[nH]cn2)NC(=O)[C@H](CCC(=O)O)NC(=O)CN(C)C(=O)[C@H](Cc2c[nH]c3ccccc23)NC(=O)[C@H](CC(=O)O)NC(=O)[C@H](CCC(N)=O)NC(=O)[C@H](Cc2cn(C)c3ccccc23)NC1=O
In the case of B2, the “IC50[nM], inhibition of hemolysis” value was less than 100 nM.

B3: Compound 22 (peptide)
peptide: Ac-ICIWQDWGEHRCE-NH2
modifications: disulfide 2-12
SMILES: CC[C@H](C)[C@H](NC(C)=O)C(=O)N[C@H]1CSSC[C@@H](C(=O)N[C@@H](CCC(=O)O)C(N)=O)NC(=O)[C@H](CCCNC(=N)N)NC(=O)[C@H](Cc2c[nH]cn2)NC(=O)[C@H](CCC(=O)O)NC(=O)CNC(=O)[C@H](Cc2c[nH]c3ccccc23)NC(=O)[C@H](CC(=O)O)NC(=O)[C@H](CCC(N)=O)NC(=O)[C@H](Cc2c[nH]c3ccccc23)NC(=O)[C@H]([C@@H](C)CC)NC1=O
In the case of B3, the “IC50[nM], inhibition of hemolysis” value is less than 100 nM.

B4: Compound 18 (peptide)
peptide: Ac-ICIWQDWGRHRCT-NH2
modifications: disulfide 2-12
SMILES: CC[C@H](C)[C@H](NC(C)=O)C(=O)N[C@H]1CSSC[C@@H](C(=O)N[C@H](C(N)=O)[C@@H](C)O)NC(=O)[C@H](CCCNC(=N)N)NC(=O)[C@H](Cc2c[nH]cn2)NC(=O)[C@H](CCCNC(=N)N)NC(=O)CNC(=O)[C@H](Cc2c[nH]c3ccccc23)NC(=O)[C@H](CC(=O)O)NC(=O)[C@H](CCC(N)=O)NC(=O)[C@H](Cc2c[nH]c3ccccc23)NC(=O)[C@H]([C@@H](C)CC)NC1=O
With B4, the “IC50[nM], inhibition of hemolysis” value was less than 100 nM.

B5: Compound 25 (peptide)
peptide: Ac-ICIWQDWGEHRCTEA-NH2
modifications: disulfide 2-12
SMILES: CC[C@H](C)[C@H](NC(C)=O)C(=O)N[C@H]1CSSC[C@@H](C(=O)N[C@H](C(=O)N[C@@H](CCC(=O)O)C(=O)N[C@@H](C)C(N)=O)[C@@H](C)O)NC(=O)[C@H](CCCNC(=N)N)NC(=O)[C@H](Cc2c[nH]cn2)NC(=O)[C@H](CCC(=O)O)NC(=O)CNC(=O)[C@H](Cc2c[nH]c3ccccc23)NC(=O)[C@H](CC(=O)O)NC(=O)[C@H](CCC(N)=O)NC(=O)[C@H](Cc2c[nH]c3ccccc23)NC(=O)[C@H]([C@@H](C)CC)NC1=O
Take B5: the “IC50[nM], inhibition of hemolysis” value is less than 100 nM.

B6: Compound 10 (peptide)
peptide: Ac-ESSAYCIWQDWGEHRCT-NH2
modifications: disulfide 6-16
SMILES: CC[C@H](C)[C@@H]1NC(=O)[C@@H](NC(=O)[C@H](Cc2ccc(O)cc2)NC(=O)[C@H](C)NC(=O)[C@H](CO)NC(=O)[C@H](CO)NC(=O)[C@H](CCC(=O)O)NC(C)=O)CSSC[C@@H](C(=O)N[C@H](C(N)=O)[C@@H](C)O)NC(=O)[C@H](CCCNC(=N)N)NC(=O)[C@H](Cc2c[nH]cn2)NC(=O)[C@H](CCC(=O)O)NC(=O)CNC(=O)[C@H](Cc2c[nH]c3ccccc23)NC(=O)[C@H](CC(=O)O)NC(=O)[C@H](CCC(N)=O)NC(=O)[C@H](Cc2c[nH]c3ccccc23)NC1=O
In the case of B6, the “IC50[nM], inhibition of hemolysis” value was less than 100 nM.

B7: Compound 12 (peptide)
peptide: Ac-ICIWQDWGAHRCE-NH2
modifications: disulfide 2-12
SMILES: CC[C@H](C)[C@H](NC(C)=O)C(=O)N[C@H]1CSSC[C@@H](C(=O)N[C@@H](CCC(=O)O)C(N)=O)NC(=O)[C@H](CCCNC(=N)N)NC(=O)[C@H](Cc2c[nH]cn2)NC(=O)[C@H](C)NC(=O)CNC(=O)[C@H](Cc2c[nH]c3ccccc23)NC(=O)[C@H](CC(=O)O)NC(=O)[C@H](CCC(N)=O)NC(=O)[C@H](Cc2c[nH]c3ccccc23)NC(=O)[C@H]([C@@H](C)CC)NC1=O
On to B7, for which the “IC50[nM], inhibition of hemolysis” value was less than 100 nM.

B8: Compound 9 (peptide)
peptide: Ac-YCIWQDWGEHRCT-NH2
modifications: disulfide 2-12
SMILES: CC[C@H](C)[C@@H]1NC(=O)[C@@H](NC(=O)[C@H](Cc2ccc(O)cc2)NC(C)=O)CSSC[C@@H](C(=O)N[C@H](C(N)=O)[C@@H](C)O)NC(=O)[C@H](CCCNC(=N)N)NC(=O)[C@H](Cc2c[nH]cn2)NC(=O)[C@H](CCC(=O)O)NC(=O)CNC(=O)[C@H](Cc2c[nH]c3ccccc23)NC(=O)[C@H](CC(=O)O)NC(=O)[C@H](CCC(N)=O)NC(=O)[C@H](Cc2c[nH]c3ccccc23)NC1=O
Turning to B8, the “IC50[nM], inhibition of hemolysis” value was less than 100 nM.

B9: Compound 151 (peptide)
peptide: Ac-SEFAI[Trp(1-Me)]QDWGEHR[hCys]TGAES-NH2
modifications: thioether 4-14
SMILES: CC[C@H](C)[C@@H]1NC(=O)[C@@H](NC(=O)[C@H](Cc2ccccc2)NC(=O)[C@H](CCC(=O)O)NC(=O)[C@H](CO)NC(C)=O)CSCC[C@@H](C(=O)N[C@H](C(=O)NCC(=O)N[C@@H](C)C(=O)N[C@@H](CCC(=O)O)C(=O)N[C@@H](CO)C(N)=O)[C@@H](C)O)NC(=O)[C@H](CCCNC(=N)N)NC(=O)[C@H](Cc2c[nH]cn2)NC(=O)[C@H](CCC(=O)O)NC(=O)CNC(=O)[C@H](Cc2c[nH]c3ccccc23)NC(=O)[C@H](CC(=O)O)NC(=O)[C@H](CCC(N)=O)NC(=O)[C@H](Cc2cn(C)c3ccccc23)NC1=O
As for B9, the “IC50[nM], inhibition of hemolysis” value is less than 100 nM.

B10: Compound 161 (peptide)
peptide: Ac-EFAI[Trp(1-Me)]QDWGEHR[hCys]EGEK([γGlu-Gly-γGlu-C18 diacid])-NH2
modifications: thioether 3-13
SMILES: CC[C@H](C)[C@@H]1NC(=O)[C@@H](NC(=O)[C@H](Cc2ccccc2)NC(=O)[C@H](CCC(=O)O)NC(C)=O)CSCC[C@@H](C(=O)N[C@@H](CCC(=O)O)C(=O)NCC(=O)N[C@@H](CCC(=O)O)C(=O)N[C@@H](CCCCNC(=O)CC[C@H](NC(=O)CNC(=O)CC[C@H](NC(=O)CCCCCCCCCCCCCCCCC(=O)O)C(=O)O)C(=O)O)C(N)=O)NC(=O)[C@H](CCCNC(=N)N)NC(=O)[C@H](Cc2c[nH]cn2)NC(=O)[C@H](CCC(=O)O)NC(=O)CNC(=O)[C@H](Cc2c[nH]c3ccccc23)NC(=O)[C@H](CC(=O)O)NC(=O)[C@H](CCC(N)=O)NC(=O)[C@H](Cc2cn(C)c3ccccc23)NC1=O
As to B10, the “IC50[nM], inhibition of hemolysis” value was less than 100 nM.

B11: Compound 26 (peptide)
peptide: Ac-ICIWQDWGEHRCTE-NH2
modifications: disulfide 2-12
SMILES: CC[C@H](C)[C@H](NC(C)=O)C(=O)N[C@H]1CSSC[C@@H](C(=O)N[C@H](C(=O)N[C@@H](CCC(=O)O)C(N)=O)[C@@H](C)O)NC(=O)[C@H](CCCNC(=N)N)NC(=O)[C@H](Cc2c[nH]cn2)NC(=O)[C@H](CCC(=O)O)NC(=O)CNC(=O)[C@H](Cc2c[nH]c3ccccc23)NC(=O)[C@H](CC(=O)O)NC(=O)[C@H](CCC(N)=O)NC(=O)[C@H](Cc2c[nH]c3ccccc23)NC(=O)[C@H]([C@@H](C)CC)NC1=O
Turning to B11, the “IC50[nM], inhibition of hemolysis” value was less than 100 nM.

B12: Compound 16 (peptide)
peptide: Ac-ICIWQEWGEHRCT-NH2
modifications: disulfide 2-12
SMILES: CC[C@H](C)[C@H](NC(C)=O)C(=O)N[C@H]1CSSC[C@@H](C(=O)N[C@H](C(N)=O)[C@@H](C)O)NC(=O)[C@H](CCCNC(=N)N)NC(=O)[C@H](Cc2c[nH]cn2)NC(=O)[C@H](CCC(=O)O)NC(=O)CNC(=O)[C@H](Cc2c[nH]c3ccccc23)NC(=O)[C@H](CCC(=O)O)NC(=O)[C@H](CCC(N)=O)NC(=O)[C@H](Cc2c[nH]c3ccccc23)NC(=O)[C@H]([C@@H](C)CC)NC1=O
Turning to B12, the “IC50[nM], inhibition of hemolysis” value was less than 100 nM.

B13: Compound 14 (peptide)
peptide: Ac-ESSAICIWQDWGEHRCTGAES-NH2
modifications: disulfide 6-16
SMILES: CC[C@H](C)[C@H](NC(=O)[C@H](C)NC(=O)[C@H](CO)NC(=O)[C@H](CO)NC(=O)[C@H](CCC(=O)O)NC(C)=O)C(=O)N[C@H]1CSSC[C@@H](C(=O)N[C@H](C(=O)NCC(=O)N[C@@H](C)C(=O)N[C@@H](CCC(=O)O)C(=O)N[C@@H](CO)C(N)=O)[C@@H](C)O)NC(=O)[C@H](CCCNC(=N)N)NC(=O)[C@H](Cc2c[nH]cn2)NC(=O)[C@H](CCC(=O)O)NC(=O)CNC(=O)[C@H](Cc2c[nH]c3ccccc23)NC(=O)[C@H](CC(=O)O)NC(=O)[C@H](CCC(N)=O)NC(=O)[C@H](Cc2c[nH]c3ccccc23)NC(=O)[C@H]([C@@H](C)CC)NC1=O
Regarding B13, the “IC50[nM], inhibition of hemolysis” value is less than 100 nM.

B14: Compound 17 (peptide)
peptide: Ac-ICIWQDWGDHRCT-NH2
modifications: disulfide 2-12
SMILES: CC[C@H](C)[C@H](NC(C)=O)C(=O)N[C@H]1CSSC[C@@H](C(=O)N[C@H](C(N)=O)[C@@H](C)O)NC(=O)[C@H](CCCNC(=N)N)NC(=O)[C@H](Cc2c[nH]cn2)NC(=O)[C@H](CC(=O)O)NC(=O)CNC(=O)[C@H](Cc2c[nH]c3ccccc23)NC(=O)[C@H](CC(=O)O)NC(=O)[C@H](CCC(N)=O)NC(=O)[C@H](Cc2c[nH]c3ccccc23)NC(=O)[C@H]([C@@H](C)CC)NC1=O
For B14, the “IC50[nM], inhibition of hemolysis” value is less than 100 nM.

For the origin of these results see patent US20220306695A1, “COMPSTATIN ANALOGUES AND THEIR MEDICAL USES” (priority 2019, published 2022).
